Here are results for 7 molecules from patent publication US20260125711, “RNA-GUIDED NUCLEASES AND ACTIVE FRAGMENTS AND VARIANTS THEREOF AND METHODS OF USE” (Life Edit Therapeutics, Inc., published 2026).

Positions count from the first letter of the chain named. Names and notes keep the numbering of the source.

What all share (settings): tags: N-terminal SV40 NLS and 3xFLAG; C-terminal nucleoplasmin NLS
One data set concerns the target T1, LPG10168 (Bacillus toyonensis).
T1 chain: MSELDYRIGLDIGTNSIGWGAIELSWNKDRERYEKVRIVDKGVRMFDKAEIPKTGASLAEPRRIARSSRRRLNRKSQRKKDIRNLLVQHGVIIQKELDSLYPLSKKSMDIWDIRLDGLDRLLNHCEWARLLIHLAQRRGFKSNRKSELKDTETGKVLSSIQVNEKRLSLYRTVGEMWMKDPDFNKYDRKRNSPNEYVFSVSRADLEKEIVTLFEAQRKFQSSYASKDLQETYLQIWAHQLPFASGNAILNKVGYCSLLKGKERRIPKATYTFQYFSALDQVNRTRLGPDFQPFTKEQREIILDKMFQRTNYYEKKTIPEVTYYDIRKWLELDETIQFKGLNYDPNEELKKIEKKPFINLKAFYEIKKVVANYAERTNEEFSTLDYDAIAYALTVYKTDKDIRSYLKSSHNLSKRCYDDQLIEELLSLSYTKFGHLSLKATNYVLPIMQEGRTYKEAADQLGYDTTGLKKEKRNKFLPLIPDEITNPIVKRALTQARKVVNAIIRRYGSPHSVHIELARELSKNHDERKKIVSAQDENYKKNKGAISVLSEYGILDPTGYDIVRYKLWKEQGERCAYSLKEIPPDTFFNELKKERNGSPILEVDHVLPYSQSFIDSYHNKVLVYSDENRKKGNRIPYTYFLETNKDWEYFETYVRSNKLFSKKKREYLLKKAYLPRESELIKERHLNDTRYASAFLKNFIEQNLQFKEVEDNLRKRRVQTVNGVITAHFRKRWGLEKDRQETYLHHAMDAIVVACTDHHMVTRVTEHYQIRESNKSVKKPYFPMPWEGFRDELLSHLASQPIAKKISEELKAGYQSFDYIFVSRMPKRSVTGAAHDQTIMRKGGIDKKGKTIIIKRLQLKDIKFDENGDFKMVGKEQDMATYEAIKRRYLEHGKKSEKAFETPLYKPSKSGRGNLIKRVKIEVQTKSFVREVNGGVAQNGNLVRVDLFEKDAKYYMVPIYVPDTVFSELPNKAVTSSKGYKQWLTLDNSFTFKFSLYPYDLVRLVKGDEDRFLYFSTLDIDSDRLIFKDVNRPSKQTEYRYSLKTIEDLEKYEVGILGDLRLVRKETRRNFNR
Nature of the data set: cell_activity; PAM nnnnCC; HEK293T.

Another data set has as its target T2, LPG10167 (Bacillus toyonensis).
T2 chain: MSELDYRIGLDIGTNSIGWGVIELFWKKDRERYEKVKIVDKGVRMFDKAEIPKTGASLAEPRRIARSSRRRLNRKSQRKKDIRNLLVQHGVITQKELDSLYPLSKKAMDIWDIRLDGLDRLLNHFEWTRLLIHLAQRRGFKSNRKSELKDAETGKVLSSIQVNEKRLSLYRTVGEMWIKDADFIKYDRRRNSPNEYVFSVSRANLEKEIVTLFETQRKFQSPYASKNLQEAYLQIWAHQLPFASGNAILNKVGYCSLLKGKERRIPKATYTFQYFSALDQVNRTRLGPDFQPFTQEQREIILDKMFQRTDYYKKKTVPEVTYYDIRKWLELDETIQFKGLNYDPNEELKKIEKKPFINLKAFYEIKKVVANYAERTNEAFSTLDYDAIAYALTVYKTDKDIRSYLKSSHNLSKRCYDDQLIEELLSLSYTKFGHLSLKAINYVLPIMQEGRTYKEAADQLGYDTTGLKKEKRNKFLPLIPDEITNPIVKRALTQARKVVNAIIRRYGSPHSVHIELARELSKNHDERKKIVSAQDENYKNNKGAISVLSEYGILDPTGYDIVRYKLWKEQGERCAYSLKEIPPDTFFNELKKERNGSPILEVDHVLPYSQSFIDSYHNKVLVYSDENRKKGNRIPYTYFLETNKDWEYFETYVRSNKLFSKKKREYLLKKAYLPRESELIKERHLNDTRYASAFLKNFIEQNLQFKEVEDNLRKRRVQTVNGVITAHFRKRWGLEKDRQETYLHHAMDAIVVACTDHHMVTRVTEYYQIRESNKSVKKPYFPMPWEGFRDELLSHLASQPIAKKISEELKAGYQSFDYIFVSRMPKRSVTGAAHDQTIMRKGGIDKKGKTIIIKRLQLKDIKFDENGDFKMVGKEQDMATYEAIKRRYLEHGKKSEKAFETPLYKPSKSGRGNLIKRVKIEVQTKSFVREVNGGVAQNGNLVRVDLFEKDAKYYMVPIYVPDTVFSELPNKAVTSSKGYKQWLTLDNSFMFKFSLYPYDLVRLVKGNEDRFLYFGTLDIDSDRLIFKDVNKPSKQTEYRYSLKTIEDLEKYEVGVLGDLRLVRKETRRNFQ
Kind of data set: cell_activity; PAM nnnnCC; HEK293T.

A further data set concerns the target T3, LPG10204.
T3 chain: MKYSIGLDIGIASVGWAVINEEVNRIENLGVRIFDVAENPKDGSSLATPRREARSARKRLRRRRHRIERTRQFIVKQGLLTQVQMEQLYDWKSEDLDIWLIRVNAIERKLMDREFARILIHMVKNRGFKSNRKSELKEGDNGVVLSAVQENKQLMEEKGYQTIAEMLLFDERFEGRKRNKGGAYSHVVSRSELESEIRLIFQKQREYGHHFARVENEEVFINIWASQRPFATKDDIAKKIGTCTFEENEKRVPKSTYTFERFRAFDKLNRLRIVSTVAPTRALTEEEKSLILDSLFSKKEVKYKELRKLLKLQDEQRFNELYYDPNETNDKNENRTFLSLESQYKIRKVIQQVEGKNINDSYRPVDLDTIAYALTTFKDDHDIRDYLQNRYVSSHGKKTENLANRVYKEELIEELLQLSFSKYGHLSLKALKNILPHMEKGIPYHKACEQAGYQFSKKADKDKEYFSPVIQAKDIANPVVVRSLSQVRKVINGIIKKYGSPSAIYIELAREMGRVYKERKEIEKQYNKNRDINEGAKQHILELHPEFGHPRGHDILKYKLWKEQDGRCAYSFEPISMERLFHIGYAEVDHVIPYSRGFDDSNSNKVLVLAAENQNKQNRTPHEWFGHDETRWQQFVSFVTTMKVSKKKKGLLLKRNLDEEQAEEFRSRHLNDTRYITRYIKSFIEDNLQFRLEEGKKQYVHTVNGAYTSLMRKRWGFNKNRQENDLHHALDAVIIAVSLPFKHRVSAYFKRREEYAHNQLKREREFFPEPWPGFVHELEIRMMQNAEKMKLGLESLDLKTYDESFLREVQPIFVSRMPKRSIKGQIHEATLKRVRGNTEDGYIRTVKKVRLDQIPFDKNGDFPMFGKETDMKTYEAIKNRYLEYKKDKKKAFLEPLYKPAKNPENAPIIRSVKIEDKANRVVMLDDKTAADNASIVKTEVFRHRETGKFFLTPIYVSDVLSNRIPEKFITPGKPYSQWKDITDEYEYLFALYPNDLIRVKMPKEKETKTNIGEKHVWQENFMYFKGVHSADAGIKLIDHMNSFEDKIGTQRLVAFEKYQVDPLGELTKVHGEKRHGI
Kind of data set: cell_activity; PAM SEQ ID NOs 146, 147; HEK293T.

A further data set concerns the target T4, LPG10208.
T4 chain: T3 chain with Q450E, S467L
Nature of the data set: cell_activity; PAM SEQ ID NOs 146, 147; HEK293T.

Protocol for LPG10167: (§1) Several of the constructs described above were introduced into mammalian cells. One day prior to transfection, 1×10⁵ HEK293T cells (Sigma) were plated in 24-well dishes in Dulbecco's modified Eagle medium (DMEM) plus 10% (vol/vol) fetal bovine serum (Gibco) and 1% Penicillin-Streptomycin (Gibco). The next day when the cells were at 50-60% confluency, 500 ng of an RGN expression plasmid plus 500 ng of a single gRNA expression plasmid were co-transfected using 1.5 μL of Lipofectamine 3000 (Thermo Scientific) per well, following the manufacturer's instructions. After 48 hours of growth, total genomic DNA was harvested using a genomic DNA isolation kit (Machery-Nagel) according to the manufacturer's instructions.
(§2) Additionally, products from PCR #2 containing Illumina overhang sequences underwent library preparation following the Illumina 16S Metagenomic Sequencing Library protocol. Deep sequencing was performed on an Illumina Mi-Seq platform by a service provider (MOGene). Typically, 200,000 of 250 bp paired-end reads (2×100,000 reads) are generated per amplicon. […] Output alignments were hand-curated to confirm insertion and deletion sites as well as identify microhomology sites at the recombination sites. All experiments were performed in human cells.
Protocol for LPG10168: as §1, §2
Protocol for LPG10204: (§3) Guide RNAs targeting several genes were designed for robustness testing of multiple RGNs in HEK293T cells by plasmid delivery. These guides were tested under optimal editing conditions for HEK293T cells in a 96-well plate which involved seeding 10,000-15,000 cells on day 1, lipofection using Lipofectamine 3000 on day 2, and genomic DNA extraction on day 4. […] Then, 0.3 μl of Lipofectamine 3000 diluted in Opti-MEM was added to the plasmid mixture and incubated for 15 mins before adding to cells.
Protocol for LPG10208: as §3

B1: SGN003668 ; B2M target SGN003668 (ssRNA ; dsDNA)
RNA: GGAGAGACUCACGCUGGAUAGCCUCGUCAUAGUUCCAUUAAAGCCAUUAAAGAAUGGCUUUGAUGUUUCUAUGAUAAGGGUUUCGGCCCGUGGCGUUGGGGAUCGCCUGCCCAUUUCAAUGGGCUUCUCCCCAUUU
DNA 1: GGAGAGACTCACGCTGGATAGCCTC
DNA 2: GAGGCTATCCAGCGTGAGTCTCTCC
B1 yielded an activity in the data set with LPG10168 of 0.61 % indels.

B2: SGN003667 ; B2M target SGN003667 (ssRNA ; dsDNA)
RNA: AAGAGAGAGUAGCGCGAGCACAGCUGUCAUAGUUCCAUUAAAGCCAUUAAAGAAUGGCUUUGAUGUUUCUAUGAUAAGGGUUUCGGCCCGUGGCGUUGGGGAUCGCCUGCCCAUUUCAAUGGGCUUCUCCCCAUUU
DNA 1: AAGAGAGAGTAGCGCGAGCACAGCT
DNA 2: AGCTGTGCTCGCGCTACTCTCTCTT
In the case of B2, in the data set with LPG10167, the activity is 1.16 % indels.

B3: SGN005374 ; SGN005374 target (ssRNA ; dsDNA)
RNA: AGUAGCGCGAGCACAGCUAAGGCCAGCCAUAAUUCCUCCAAAGGGAGUUAUUAUGGUAAGGCAUUAUGCCGUGGCGUUGGGGAUCGCCUACAUCCGAUUAGAUCGGAUUCUCCCUAAAAAUGACUAACUUUGUUUAGUCAUUUUUUU
DNA 1: AGTAGCGCGAGCACAGCTAAGGCCA
DNA 2: TGGCCTTAGCTGTGCTCGCGCTACT
The molecule B3 gave an activity with LPG10204 of 37.5 % indels.

B4: SGN005374 ; SGN005374 target (LPG10208) (ssRNA ; dsDNA)
RNA: B3 RNA
DNA 1: AGTAGCGCGAGCACAGCTAAGGCCA
DNA 2: TGGCCTTAGCTGTGCTCGCGCTACT
B4: the activity with LPG10208 worked out at 47.2 % indels.

B5: SGN003669 ; B2M target SGN003669 (ssRNA ; dsDNA)
RNA: UGACAGCAUUCGGGCCGAGAUGUCUGUCAUAGUUCCAUUAAAGCCAUUAAAGAAUGGCUUUGAUGUUUCUAUGAUAAGGGUUUCGGCCCGUGGCGUUGGGGAUCGCCUGCCCAUUUCAAUGGGCUUCUCCCCAUUU
DNA 1: TGACAGCATTCGGGCCGAGATGTCT
DNA 2: AGACATCTCGGCCCGAATGCTGTCA
For the molecule B5, the activity with LPG10168 turned out to be 3.68 % indels.

B6: SGN005382 ; SGN005382 target (ssRNA ; dsDNA)
RNA: CUCUCUUUCUGGCCUGGAGGCUAUCGCCAUAAUUCCUCCAAAGGGAGUUAUUAUGGUAAGGCAUUAUGCCGUGGCGUUGGGGAUCGCCUACAUCCGAUUAGAUCGGAUUCUCCCUAAAAAUGACUAACUUUGUUUAGUCAUUUUUUU
DNA 1: CTCTCTTTCTGGCCTGGAGGCTATC
DNA 2: GATAGCCTCCAGGCCAGAAAGAGAG
B6 yielded an activity with LPG10204 of 25.5 % indels.

B7: SGN005373 ; SGN005373 target (LPG10208) (ssRNA ; dsDNA)
RNA: UAGCCUCCAGGCCAGAAAGAGAGAGGCCAUAAUUCCUCCAAAGGGAGUUAUUAUGGUAAGGCAUUAUGCCGUGGCGUUGGGGAUCGCCUACAUCCGAUUAGAUCGGAUUCUCCCUAAAAAUGACUAACUUUGUUUAGUCAUUUUUUU
DNA 1: TAGCCTCCAGGCCAGAAAGAGAGAG
DNA 2: CTCTCTCTTTCTGGCCTGGAGGCTA
B7 returned an activity with LPG10208 of 37.5 % indels.
